One molecule from paper PMC7704405, “Monoclonal Anti-AMP Antibodies Are Sensitive and Valuable Tools for Detecting Patterns of AMPylation” (iScience, 2020) can be followed below.

The target of the assay is T1, endogenous AMPylated BiP of CHO-K1 cells (Cricetulus griseus (CHO-K1), UniProt G3I8R9, AMP (threonine 518 is the site the paper names for BiP modified by FICD)).
T1 construct: ER chaperone BiP/Grp-78, endogenous in CHO-K1 cells; also called endogenous BiP-AMP; source: endogenous, CHO-K1 lysate (untreated or treated with CHX 4 h); also after methanol/chloroform precipitation (denatured)
T1 sequence (G3I8R9 19-654): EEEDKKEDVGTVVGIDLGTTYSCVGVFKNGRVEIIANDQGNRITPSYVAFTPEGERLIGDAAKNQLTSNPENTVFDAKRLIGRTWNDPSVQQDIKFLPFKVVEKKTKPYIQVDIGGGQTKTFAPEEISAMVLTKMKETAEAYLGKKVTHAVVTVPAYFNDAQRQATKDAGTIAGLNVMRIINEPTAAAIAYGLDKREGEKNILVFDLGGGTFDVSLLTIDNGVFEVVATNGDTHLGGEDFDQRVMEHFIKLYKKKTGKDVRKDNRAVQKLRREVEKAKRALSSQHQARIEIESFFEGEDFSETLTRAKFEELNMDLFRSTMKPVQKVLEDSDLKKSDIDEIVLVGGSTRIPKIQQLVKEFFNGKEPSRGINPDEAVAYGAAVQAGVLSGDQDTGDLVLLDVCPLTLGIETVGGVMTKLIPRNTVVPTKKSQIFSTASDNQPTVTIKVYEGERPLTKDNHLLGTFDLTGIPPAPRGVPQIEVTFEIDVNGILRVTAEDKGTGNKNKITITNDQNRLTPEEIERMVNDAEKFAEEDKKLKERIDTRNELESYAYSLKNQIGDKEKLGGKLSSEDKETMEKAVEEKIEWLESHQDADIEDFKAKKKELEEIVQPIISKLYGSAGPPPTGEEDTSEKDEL
The assay is described as follows: western blot; 20 μg total cell lysate (HEK293, CHO-K1; untreated, TG 2 h or CHX 4 h; in Figure 4A HEK293 lysate spiked with a titration of recombinant BiP-AMP) on the blot, probed with 17G6 in the presence of MnCl2. The note with it: one partner purified.

B1: monoclonal anti-AMP antibody 17G6 (antibody, V domains shown)
VH: EVQLQQSGPELVKPGASVKISCKASGYTFTDYYLNWVKQSHGKSLEWIGDIHPNKGINKYNQKFKGKATLTVDKSSSTAYMELRSLTSEDSAVYYCARYYGKRYFDVWGTGTMVTVSS
VL: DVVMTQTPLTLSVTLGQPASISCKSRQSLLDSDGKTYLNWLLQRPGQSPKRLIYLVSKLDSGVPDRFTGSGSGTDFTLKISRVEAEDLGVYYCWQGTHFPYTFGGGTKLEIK
notes: Recognises the AMP moiety on modified side chains; no preference for Thr or Tyr; source: mouse hybridoma (C57BL/6, BSA-hapten immunogen); roller bottle cell culture, purified from the supernatant (Protein A); clone supernatant in the selection ELISA
For the molecule B1, the binding result is on record as “binds”.
